Data as given in US20220041711A1 (NGM BIOPHARMACEUTICALS, published 2022).
Read-outs that look alike come from different tables or passages of the source.

Key:
[1] = target: T1, human LAIR-1-ECD (human, UniProt Q6GTX8 22-165); test: SPR (Biacore) as in Example 2
T1 construct: Recombinant, expressed in mammalian cells; also called extracellular region of human LAIR-1
T1 chain: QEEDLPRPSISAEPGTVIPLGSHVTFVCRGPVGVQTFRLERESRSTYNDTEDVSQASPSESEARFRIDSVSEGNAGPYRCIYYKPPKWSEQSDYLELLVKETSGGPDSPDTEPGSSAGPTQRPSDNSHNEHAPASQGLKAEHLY

[2] = target: T2, cyno LAIR-1-ECD (cynomolgus monkey); test: SPR (Biacore) as in Example 2
T2 construct: Recombinant, expressed in mammalian cells; also called extracellular region of cyno LAIR-1
T2 chain: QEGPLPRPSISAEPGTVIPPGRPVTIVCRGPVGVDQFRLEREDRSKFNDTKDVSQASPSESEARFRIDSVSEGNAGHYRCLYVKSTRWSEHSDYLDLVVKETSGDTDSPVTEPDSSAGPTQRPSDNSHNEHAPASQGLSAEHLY

[3] = target: T3, human LAIR-1-CD3ζ chimeric receptor on NFAT-GFP reporter cells (human, UniProt P20963 31-164, limits assumed); test: cell-based or functional assay
[4] = target: T4, cyno LAIR-1-CD3ζ chimeric receptor on NFAT-GFP reporter cells (cynomolgus monkey; human); test: flow cytometry on cyno LAIR-1 reporter cells, PE anti-human Fc secondary, MFI (panel Cynomolgus Monkey LAIR1 Cells)
T4 construct: domain: transmembrane/intracellular domain; also called cyno LAIR-1-CD3ζ-NFAT-GFP reporter cells; cyno LAIR-1 reporter cells

[5] = target: T5, human LAIR-1b (alternative isoform of human LAIR-1) on transfected 293T cells (human, UniProt Q6GTX8 22-287); test: flow cytometry on cells expressing human LAIR-1b, PE anti-human Fc secondary, MFI (panel Human LAIR1 (Truncated) Cells)
T5 chain: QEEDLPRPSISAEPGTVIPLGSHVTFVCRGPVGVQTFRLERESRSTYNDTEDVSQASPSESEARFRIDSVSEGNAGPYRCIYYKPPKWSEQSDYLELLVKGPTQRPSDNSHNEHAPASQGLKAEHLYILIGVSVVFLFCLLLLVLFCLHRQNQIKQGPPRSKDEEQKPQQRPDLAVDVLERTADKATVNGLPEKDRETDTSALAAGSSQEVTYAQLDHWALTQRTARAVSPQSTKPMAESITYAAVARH

[6] = target: T4, cyno LAIR-1-CD3ζ chimeric receptor on …; test: cell-based or functional assay
[7] = target: T3, human LAIR-1-CD3ζ chimeric receptor on …; test: cell-based or functional assay; remark: listed apart in the source
[8] = target: T4, cyno LAIR-1-CD3ζ chimeric receptor on …; test: cell-based or functional assay; remark: listed apart in the source
[9] = target: T3, human LAIR-1-CD3ζ chimeric receptor on …; test: cell-based or functional assay; remark: listed apart in the source
[10] = target: T3, human LAIR-1-CD3ζ chimeric receptor on …; test: flow cytometry on human LAIR-1 reporter cells, PE anti-human Fc secondary, MFI (panel Human LAIR1 Cells)
[11] = target: T3, human LAIR-1-CD3ζ chimeric receptor on …; test: cell-based or functional assay; remark: listed apart in the source
[12] = target: T6, human LAIR-1-Fc (human, UniProt Q6GTX8 22-165); test: ELISA blocking: plate coated with 5 µg/mL human collagen type 1, antibody titrated, 1 µg/mL biotinylated human LAIR-1-Fc, streptavidin-HRP, OD650
T6 construct: also called biotinylated human LAIR-1-Fc; not shown: a Fc region
T6 chain: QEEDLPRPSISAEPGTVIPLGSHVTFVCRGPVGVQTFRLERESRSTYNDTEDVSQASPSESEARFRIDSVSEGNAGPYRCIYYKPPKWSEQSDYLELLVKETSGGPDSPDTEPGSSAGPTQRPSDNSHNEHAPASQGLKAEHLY

[13] = target: T4, cyno LAIR-1-CD3ζ chimeric receptor on …; test: cell-based or functional assay; remark: listed apart in the source
[14] = target: T3, human LAIR-1-CD3ζ chimeric receptor on …; test: cell-based or functional assay; remark: listed apart in the source
[15] = target: T7, human LAIR-1, endogenous on human cells (human, UniProt Q6GTX8 22-287); test: flow cytometry of human PBMCs (9 donors) with Alexa Fluor 488-labelled ch47H1
T7 construct: Native receptor of primary human cells and of the THP1 line; isoform on the cells not determined; also called LAIR-1 on PBMC subsets, THP1 cells, monocyte-derived dendritic cells, macrophages and T-cells
T7 chain: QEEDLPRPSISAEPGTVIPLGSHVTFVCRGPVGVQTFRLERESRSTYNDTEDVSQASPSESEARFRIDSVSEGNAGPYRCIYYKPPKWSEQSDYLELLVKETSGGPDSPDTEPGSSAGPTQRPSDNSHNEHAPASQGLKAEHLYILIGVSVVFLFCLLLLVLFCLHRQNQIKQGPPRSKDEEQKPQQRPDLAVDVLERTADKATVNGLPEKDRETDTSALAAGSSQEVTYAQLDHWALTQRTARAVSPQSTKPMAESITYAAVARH

[16] = target: T8, mouse LAIR-1-hFc (Sino Biological) (mouse, UniProt Q8BG84 22-144, limits assumed); test: ELISA blocking: plate coated with 2 µg/mL mouse collagen type 1, antibody pre-incubated with 2 µg/mL mouse LAIR-1-hFc, HRP anti-human Fc, OD650 (left panel)
T8 construct: Bought; also called mouse LAIR-1-Fc; not shown: human Fc (hFc)
T8 sequence: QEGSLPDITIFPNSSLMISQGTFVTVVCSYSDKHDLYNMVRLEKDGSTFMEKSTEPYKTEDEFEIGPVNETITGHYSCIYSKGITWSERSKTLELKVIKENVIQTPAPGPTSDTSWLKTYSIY

[17] = target: T9, mouse LAIR-1-PILRβ chimeric receptor on GFP reporter cells (mouse); test: cell-based or functional assay
[18] = target: T8, mouse LAIR-1-hFc (Sino Biological); test: flow cytometry blocking: antibody pre-incubated with 2 µg/mL mouse LAIR-1-hFc, added to HEK-293T cells transfected with mouse MARCO, Alexa Fluor 647 anti-human Fc, MFI (right panel)
[19] = target: T9, mouse LAIR-1-PILRβ chimeric receptor on …; test: cell-based or functional assay; remark: listed apart in the source

B1: anti-LAIR-1 antibody ch47H1 (antibody, V domains shown)
VH: EVQLVETGGGLVQPKGSLKLSCAASGFTFNINAMNWVRQAPGKGLEWVARIRTKNNNYATFYADSVKDRFTISRDDSQSMLYLQMNNLKTDDTAMYYCVRDRAGFFAYWGQGTPVTVSA
VL: DIQMTQSPASQSASLGESVTITCLASQTIGTWLGWYRQKPGKSPQLLIYAATSLADGVPSRFSGSGSGTKFSFKISSLQAEDFVIYYCQQLYSTPLTFGSGTKLEIK
notes: The prefix 'ch' is not defined; detected with anti-human Fc secondary antibody
Kd [1]: 0.34 nM | koff [1]: 0.00051 s⁻¹ | kon [1]: 1.5e+06 M⁻¹ s⁻¹ | Kd [2]: 4.6 nM | koff [2]: 0.001 s⁻¹ | kon [2]: 220000 M⁻¹ s⁻¹ | IC50 (read off the curve): % GFP+ human LAIR-1 reporter cells on coated C1 complex [3]: ~0.02 nM | IC50 (read off the curve): % GFP+ human LAIR-1 reporter cells on coated COLEC12 [3]: ~0.05 nM | IC50 (read off the curve): % GFP+ human LAIR-1 reporter cells on coated MARCO-his [3]: ~0.03 nM | IC50 (read off the curve): % GFP+ human LAIR-1 reporter cells on coated MBL [3]: ~0.06 nM | IC50 (read off the curve): % GFP+ human LAIR-1 reporter cells on coated SP-D [3]: ~0.03 nM | IC50 (read off the curve): % GFP+ human LAIR-1 reporter cells on coated collagen 1 [3]: ~0.02 nM | IC50 (read off the curve): % GFP+ human LAIR-1 reporter cells on coated collagen 4 [3]: ~0.02 nM | EC50 (read off the curve) [4]: ~0.7 nM | EC50 (read off the curve) [5]: ~1 nM | IC50 (read off the curve): % GFP+ cyno LAIR-1 reporter cells on polymerized collagen matrix [6]: ~0.2 nM | IC50 (read off the curve): % GFP+ human LAIR-1 reporter cells on polymerized collagen matrix [7]: ~0.03 nM | IC50 (read off the curve): % GFP+ cyno LAIR-1 reporter cells co-cultured with bEnd.3 cells [8]: ~0.1 nM | IC50 (read off the curve): % GFP+ human LAIR-1 reporter cells co-cultured with bEnd.3 cells [9]: ~0.02 nM | EC50 (read off the curve) [10]: ~0.2 nM | IC50 (read off the curve): % GFP+ human LAIR-1 reporter cells on coated MARCO-his [11]: ~0.07 nM | IC50 (read off the curve): % GFP+ human LAIR-1 reporter cells on coated collagen 1 [11]: ~0.09 nM | IC50 (read off the curve): % GFP+ human LAIR-1 reporter cells on coated collagen 4 [11]: ~0.06 nM | IC50 (read off the curve) [12]: ~3 nM | IC50 (read off the curve): % GFP+ cyno LAIR-1 reporter cells on coated MARCO-his [13]: ~0.1 nM | IC50 (read off the curve): % GFP+ cyno LAIR-1 reporter cells on coated collagen 1 [13]: ~0.2 nM | IC50 (read off the curve): % GFP+ cyno LAIR-1 reporter cells on coated collagen 4 [13]: ~0.2 nM | IC50 (read off the curve): % GFP+ human LAIR-1 reporter cells on coated MARCO-his [14]: ~0.02 nM | IC50 (read off the curve): % GFP+ human LAIR-1 reporter cells on coated collagen 1 [14]: ~0.02 nM | IC50 (read off the curve): % GFP+ human LAIR-1 reporter cells on coated collagen 4 [14]: ~0.02 nM | binding result [15]: binds

B2: anti-mouse LAIR-1 antibody 43H2 (antibody, V domains shown)
VH: EVQLVESGGGLVQPGRSLKVSCAASGFTFSNYGIHWIRQAPTKGLEWVASISPSGRSTYFRDSVKGRFTISRDNAKNTLYLQLDSLRSEDTATYYCATGINYSSFDYWGQGVMVTVSS
VL: DIVMTQSPTSMSISVGDRVTMNCKASQNVGSHVDWYQQKTGQSPKLLISTASNRYTGVPDRFTGSGSGTDFTFTINNMQTEDLAVYYCMQSNSYPPTFGGGTKLELK
notes: Raised in rats
IC50 (read off the curve) [16]: ~80 nM | IC50 (read off the curve): % GFP+ mouse LAIR-1 reporter cells co-cultured with bEnd.3 cells [17]: ~0.02 nM | IC50 (read off the curve) [18]: ~20 nM | IC50 (read off the curve): % GFP+ mouse LAIR-1 reporter cells on coated human MARCO-his [19]: ~0.1 nM | IC50 (read off the curve): % GFP+ mouse LAIR-1 reporter cells on coated mouse collagen type 1 [19]: ~0.04 nM | IC50 (read off the curve): % GFP+ mouse LAIR-1 reporter cells on coated mouse collagen type 4 [19]: ~0.02 nM
